From patent US20090061461A1 (published 2009) come the findings set out here.

B1: HA-tagged mPR mutant S56A/S180A (receptor)
chain: not shown
notes: also called mPR-3HA S56A/S180A; not shown: C-terminal 3xHA tag
B2: HA-tagged mPR mutant S180A (receptor)
chain: not shown
notes: also called mPR-3HA S180A; not shown: C-terminal 3xHA tag
B3: HA-tagged mPR mutant S56A (receptor)
chain: not shown
notes: also called mPR-3HA S56A; not shown: C-terminal 3xHA tag
B4: HA-tagged mPR mutant S56A/C128S/S180A (receptor)
chain: not shown
notes: not shown: C-terminal 3xHA tag

In the assay the target is T1, deleted in colorectal cancer (DCC) (human, UniProt P43146 26-1447).
T1 construct: Endogenous DCC of MCF-7 cells, detected by Western blot in the anti-HA immunoprecipitate; also called DCC/Unc-40
T1 sequence (P43146 26-1447 limits assumed): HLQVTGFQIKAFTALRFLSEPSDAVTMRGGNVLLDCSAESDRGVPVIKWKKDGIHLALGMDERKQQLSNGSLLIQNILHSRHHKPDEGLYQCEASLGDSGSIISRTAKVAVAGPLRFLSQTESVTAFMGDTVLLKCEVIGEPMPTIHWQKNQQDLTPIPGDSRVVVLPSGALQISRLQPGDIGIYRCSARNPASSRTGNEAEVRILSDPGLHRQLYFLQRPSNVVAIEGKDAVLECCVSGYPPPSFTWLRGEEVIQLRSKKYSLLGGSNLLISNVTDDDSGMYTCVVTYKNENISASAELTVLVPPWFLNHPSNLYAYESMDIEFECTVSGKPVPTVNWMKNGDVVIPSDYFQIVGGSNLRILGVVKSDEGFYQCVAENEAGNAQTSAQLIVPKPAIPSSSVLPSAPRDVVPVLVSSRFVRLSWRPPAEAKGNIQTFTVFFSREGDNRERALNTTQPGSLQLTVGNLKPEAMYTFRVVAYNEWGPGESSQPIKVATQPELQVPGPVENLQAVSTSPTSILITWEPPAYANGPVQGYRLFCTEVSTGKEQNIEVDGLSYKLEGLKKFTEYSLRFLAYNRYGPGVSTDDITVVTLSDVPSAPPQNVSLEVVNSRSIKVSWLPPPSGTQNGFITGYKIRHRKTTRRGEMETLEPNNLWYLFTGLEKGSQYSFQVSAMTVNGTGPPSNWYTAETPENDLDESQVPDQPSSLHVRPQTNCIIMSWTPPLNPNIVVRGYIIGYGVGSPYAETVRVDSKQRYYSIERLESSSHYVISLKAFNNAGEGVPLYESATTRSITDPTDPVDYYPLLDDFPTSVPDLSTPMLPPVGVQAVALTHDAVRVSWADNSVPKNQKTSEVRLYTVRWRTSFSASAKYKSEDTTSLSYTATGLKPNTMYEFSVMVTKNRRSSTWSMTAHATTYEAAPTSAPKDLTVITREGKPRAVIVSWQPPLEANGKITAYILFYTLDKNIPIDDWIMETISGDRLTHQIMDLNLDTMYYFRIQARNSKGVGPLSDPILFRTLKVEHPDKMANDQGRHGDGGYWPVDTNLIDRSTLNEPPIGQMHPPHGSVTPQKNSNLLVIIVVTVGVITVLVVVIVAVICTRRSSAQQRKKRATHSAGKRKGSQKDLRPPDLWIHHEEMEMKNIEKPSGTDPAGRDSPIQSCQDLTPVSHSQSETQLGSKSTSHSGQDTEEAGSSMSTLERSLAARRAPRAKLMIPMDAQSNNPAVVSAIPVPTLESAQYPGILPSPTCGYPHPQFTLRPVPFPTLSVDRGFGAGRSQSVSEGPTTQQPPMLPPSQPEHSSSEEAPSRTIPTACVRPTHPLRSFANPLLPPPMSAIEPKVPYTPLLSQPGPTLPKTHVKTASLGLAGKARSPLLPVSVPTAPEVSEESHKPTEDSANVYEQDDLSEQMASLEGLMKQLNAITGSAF
Kind of assay: co-immunoprecipitation (anti-HA) from transfected MCF-7 cells, Western blot with anti-DCC AF5. The procedure: MCF-7 breast cancer cells were transfected by Lipofection with 5 μg of pcDNA3.1 containing HA-tagged mPR-wt, tagged mutant S56A, S180A, S56A/S180A, or tagged mutant S56A/C128S/[…]. After transfection of 2×10⁶ cells they were cultured in RPMI-Medium with 5% FCS. For IP the cells were trypsinized, counted and cell pellets were snap frozen and stored at −80° C.
Beads were separated by centrifugation and stored at −80° C. […] Incubation was performed for 16 h at 4° C. in a rotating tube. Then, beads were separated by centrifugation and washed twice with ice cold lysis buffer.
For PAGE gel-loading buffer/mercatoethanol was added to beads and the final supernatant, heated to 95° C. for 5 min and loaded on a 10% polyacrylamide gel. After separation of the proteins, western blot was performed onto nitrocellulose membrane. Transfer was controlled by Ponceau-red staining visualizing protein bands. After destaining the membranes were blocked for 16 h at 4° C. with 5% milkpowder/0.05% Tween. The next day membranes were incubated with mouse monoclonal anti-DCC antibody (1:20) (Biozol/Abcam) for 2 h at RT followed by biotinylated anti-mouse IgG antibody (Vecta Stain). For detection, membranes were incubated with streptavidin/HRP complex (DAKO) for 2 h at RT followed by enhanced chemiluminescence (ECL) treatment and measurement of chemiluminescence using a Lumiimager (Roche). As a loading control, membranes were incubated with rabbit polyclonal Actin I-19 antibody (Santa Cruz).
For orientation: Immunoblotting shows a protein as a band on a membrane.
On to B1, for which the binding result is on record as “no binding”.

Take B2: the binding result was “no binding”.

For the molecule B3, the binding result is reported as “no binding”.

Turning to B4, the binding result is given as “no binding”.
